According to IntAct's records for PubMed 8114715:

Columns and labels:
[1] = biological target: lck_human LCK (UniProt P06239)
[2] = biological target: lck_human LCK (UniProt P06239); remark: listed apart in the source
[3] = biological target: lck_human LCK (UniProt P06239); remark: listed apart in the source

Sequence of lck_human LCK (P06239 whole entry, looked up): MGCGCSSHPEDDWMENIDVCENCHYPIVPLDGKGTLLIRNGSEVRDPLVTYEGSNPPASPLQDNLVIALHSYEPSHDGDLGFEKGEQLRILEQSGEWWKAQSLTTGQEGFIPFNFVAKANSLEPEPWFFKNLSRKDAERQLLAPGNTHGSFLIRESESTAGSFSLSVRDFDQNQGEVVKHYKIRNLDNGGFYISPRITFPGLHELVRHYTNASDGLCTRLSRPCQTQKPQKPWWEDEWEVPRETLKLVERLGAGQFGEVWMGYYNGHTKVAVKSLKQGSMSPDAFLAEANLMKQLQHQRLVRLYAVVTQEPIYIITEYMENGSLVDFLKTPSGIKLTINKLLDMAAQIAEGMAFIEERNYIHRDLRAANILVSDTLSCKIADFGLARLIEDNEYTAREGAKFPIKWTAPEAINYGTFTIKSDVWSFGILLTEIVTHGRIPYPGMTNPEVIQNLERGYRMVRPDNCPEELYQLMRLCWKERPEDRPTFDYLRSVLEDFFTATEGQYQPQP
Sequence of Tyrosine-protein phosphatase non-receptor type 6 (Homo sapiens), P29350 Y564F (P29350 whole entry Y564F): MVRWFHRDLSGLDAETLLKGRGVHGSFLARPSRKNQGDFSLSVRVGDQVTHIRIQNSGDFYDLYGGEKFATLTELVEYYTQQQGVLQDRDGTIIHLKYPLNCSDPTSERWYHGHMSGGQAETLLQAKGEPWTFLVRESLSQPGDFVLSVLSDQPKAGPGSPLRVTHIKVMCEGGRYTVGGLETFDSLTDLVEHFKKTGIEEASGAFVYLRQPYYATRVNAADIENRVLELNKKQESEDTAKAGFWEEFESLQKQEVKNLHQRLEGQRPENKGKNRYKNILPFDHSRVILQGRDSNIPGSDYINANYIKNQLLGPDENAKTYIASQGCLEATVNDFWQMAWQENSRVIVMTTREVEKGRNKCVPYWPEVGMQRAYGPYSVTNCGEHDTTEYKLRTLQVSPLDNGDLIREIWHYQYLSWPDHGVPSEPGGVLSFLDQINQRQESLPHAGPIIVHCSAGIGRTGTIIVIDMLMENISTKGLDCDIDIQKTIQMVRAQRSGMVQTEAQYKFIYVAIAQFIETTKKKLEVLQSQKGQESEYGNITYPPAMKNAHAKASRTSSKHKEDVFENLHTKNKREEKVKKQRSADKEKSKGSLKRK
Sequence of Tyrosine-protein phosphatase non-receptor type 6 (Homo sapiens), P29350 Y541F (P29350 whole entry Y541F): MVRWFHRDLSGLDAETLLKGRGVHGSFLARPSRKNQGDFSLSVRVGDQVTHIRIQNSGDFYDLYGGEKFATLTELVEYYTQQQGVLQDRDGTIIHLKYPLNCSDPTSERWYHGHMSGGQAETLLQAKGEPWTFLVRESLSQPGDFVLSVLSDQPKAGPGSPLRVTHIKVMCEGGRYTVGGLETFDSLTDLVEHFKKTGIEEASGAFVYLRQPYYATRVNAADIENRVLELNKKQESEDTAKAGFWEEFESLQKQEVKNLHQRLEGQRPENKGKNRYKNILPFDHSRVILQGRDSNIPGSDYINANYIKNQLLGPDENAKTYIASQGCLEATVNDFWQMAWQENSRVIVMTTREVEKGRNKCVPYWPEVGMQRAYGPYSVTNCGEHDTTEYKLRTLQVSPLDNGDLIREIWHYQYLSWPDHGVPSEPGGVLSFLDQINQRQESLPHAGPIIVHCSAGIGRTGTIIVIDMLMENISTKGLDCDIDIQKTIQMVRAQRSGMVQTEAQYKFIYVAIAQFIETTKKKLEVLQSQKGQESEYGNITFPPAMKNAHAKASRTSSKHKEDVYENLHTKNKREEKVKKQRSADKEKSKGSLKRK
Sequence of Tyrosine-protein phosphatase non-receptor type 6 (Homo sapiens), P29350 Y536F (P29350 whole entry Y536F): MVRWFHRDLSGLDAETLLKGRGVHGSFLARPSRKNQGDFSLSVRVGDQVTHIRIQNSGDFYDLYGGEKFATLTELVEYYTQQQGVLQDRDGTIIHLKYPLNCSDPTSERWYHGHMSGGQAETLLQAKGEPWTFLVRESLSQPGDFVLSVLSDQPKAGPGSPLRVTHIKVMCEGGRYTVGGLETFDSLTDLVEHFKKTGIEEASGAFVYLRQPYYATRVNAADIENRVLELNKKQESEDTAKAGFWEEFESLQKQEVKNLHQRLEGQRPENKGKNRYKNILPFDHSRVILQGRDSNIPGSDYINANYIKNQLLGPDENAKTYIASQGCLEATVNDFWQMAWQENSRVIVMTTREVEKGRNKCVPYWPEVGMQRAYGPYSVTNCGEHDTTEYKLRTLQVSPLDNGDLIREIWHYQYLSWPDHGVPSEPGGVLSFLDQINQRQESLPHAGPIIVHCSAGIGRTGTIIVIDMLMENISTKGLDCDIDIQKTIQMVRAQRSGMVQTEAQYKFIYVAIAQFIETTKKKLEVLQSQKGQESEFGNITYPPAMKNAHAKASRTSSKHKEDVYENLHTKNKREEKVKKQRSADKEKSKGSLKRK

Tyrosine-protein phosphatase non-receptor type 6 (Homo sapiens), P29350 Y536F
effect of a mutation on the interaction [1]: decreasing interaction

Tyrosine-protein phosphatase non-receptor type 6 (Homo sapiens), P29350 Y541F
effect of a mutation on the interaction [2]: decreasing interaction

Tyrosine-protein phosphatase non-receptor type 6 (Homo sapiens), P29350 Y564F
effect of a mutation on the interaction [3]: decreasing interaction
